Target: DSS1 (human)
Experiment: MST; labelled DSS1 50 nM constant, RAD52 1 nM to 36 uM, 30 mM Tris-acetate pH 7.5, 1 mM DTT, 25°C, quadratic binding equation

Kd: 0.014 µM
B1: RAD52 (natural protein)
chain: MSGTEEAILGGRDSHPAAGGGSVLCFGQCQYTAEEYQAIQKALRQRLGPEYISSRMAGGGQKVCYIEGHRVINLANEMFGYNGWAHSITQQNVDFVDLNNGKFYVGVCAFVRVQLKDGSYHEDVGYGVSEGLKSKALSLEKARKEAVTDGLKRALRSFGNALGNCILDKDYLRSLNKLPRQLPLEVDLTKAKRQDLEPSVEEARYNSCRPNMALGHPQLQQVTSPSRPSHAVIPADQDCSSRSLSSSAVESEATHQRKLRQKQLQQQFRERMEKQQVRVSTPSAEKSEAAPPAPPVTHSTPVTVSEPLLEKDFLAGVTQELIKTLEDNSEKWAVTPDAGDGVVKPSSRADPAQTSDTLALNNQMVTQNRTPHSVCHQKPQAKSGSWDLQTYSADQRTTGNWESHRKSQDMKKRKYDPS

Source: publication PMC6954417
